{"source": "patent US12723255B2", "about": "“Herbicide tolerance genes and methods of use thereof” (priority 2014, dated 2026)", "molecules": {"B1": {"name": "MON-HT55: engineered oxygenase protein, amino acid sequence SEQ ID NO:11 (protein)", "chain": "MHAALSPLSQRFERIAVQPLTGVLGAEITGVDLREPLDDSTWNEILDAFHTYQVIYFPGQAITNEQHIAFSRRFGPVDPVPLLKSIEGYPEVQMIRREANESGRVIGENWHTDSTFLDAPPAAVVMYAKEIPPYGGDTLFTSMYTAWETLSPTMQATIEGLNVVHSATRVFGSLYQAQNRRFSNTSVKVMDVDAGDRETVHPLVVTHPETGRKGLYVNQVYCQRIEGMSEKESEPLLSFLFAHATKPEFTCRVRWQEGDVLVWDNLCTQHYAVPDYAGKFRYLTRTTVGGVRPAR"}, "B2": {"name": "MON-HT1: engineered oxygenase protein, amino acid sequence SEQ ID NO:14 (protein)", "chain": "MHAALTPLTNKYRFIDVQPLTGVLGAEITGVDLREPLDDSTWNEILDAFHTYQVIYFPGQAITNEQHIAFSRRFGPVDPVPILKSIEGYPEVQMIRREANESSRFIGDDWHTDSTFLDAPPAAVVMRAIEVPEYGGDTGFLSMYSAWETLSPTMQATIEGLNVVHSATKVFGSLYQATNWRFSNTSVKVMDVDAGDRETVHPLVVTHPVTGRRALYCNQVYCQKIQGMTDAESKSLLQFLYEHATKFDFTCRVRWKKDQVLVWDNLCTMHRAVPDYAGKFRYLTRTTVAGDKPSR"}}, "key": {"F1 hybrid maize plants [1]": {"system": "F1 hybrid maize plants", "test": "2,4-D tolerance at elevated growth temperatures", "format": "in vivo", "details": "4× 2,4-D amine; day/night 38° C./30° C.; ten days after treatment", "protocol": "To test for 2,4-D tolerance at elevated growth temperatures, F1 hybrid plants were produced by crossing an R1 plant containing MON-HTI, MON-HT2, MON-HT3, MON-HT4, MON-HT7, or MON-HT55 with an inbred plant containing maize event MON89034. The F1 hybrid plants were grown in a greenhouse for one week at a minimum temperature of 20° C. and a maximum temperature of 28° C. with 50 to 80% humidity. After 1 week, the plants were moved to acclimate for three days at one of two different day and night temperature regimens: (1) both day and night temperatures set at 20° C. or (2) day temperature at 38° C. and night temperature at 30° C. At the end of the acclimation period, the plants were generally at V4 growth stage and were sprayed with 4× 2,4-D amine. Ten days after treatment the plants were scored for injury using an injury scale of 0 to 100 with “0” being no injury and “100” being a dead plant. When plants were acclimated at day/night temperatures of 20° C./20° C. prior to application of 4× 2,4-D amine, F1 plants containing MON-HT1, MON-HT2, MON-HT3, MON-HT4, MON-HT7, or MON-HT55 had injury rating averages of <10%, and the control plants had injury rating averages of <20% (FIG. 4D). […]"}, "F1 hybrid maize plants [2]": {"system": "F1 hybrid maize plants", "test": "plant-based growth chamber assay for temperature-sensitive quizalofop-P tolerance", "format": "in vivo", "excerpt": "The finding that hybrid plants expressing the engineered proteins MON-HT55 or MON-HT51 were sensitive to quizalofop-P application when grown in field conditions of high temperature was confirmed using a plant-based assay. The plant-based assay was designed to test tolerance to quizalofop-P of F1 hybrids in the growth chamber prior to field testing. The assay was developed using F1 hybrids of plants containing maize events NK603 (U.S. Pat. No. 8,273,959)×MON89034 (U.S. Pat. No. 8,581,047) and F1 hybrids of plants containing MON-HT55×MON89034. F1 hybrid seed was germinated in a growth chamber for 1 week and then moved to one of three different growth chambers to acclimate for two days at day/night temperatures of 20° C./20° C., 28° C./20° C., and 38° C./30° C. prior to application of 2× (0.16 lb ai/acre) quizalofop-P. As expected, the plants not containing MON-HT55 at all temperature regimens were severely injured by 2× quizalofop-P application (FIG. 1B). […] (FIG. 1C). This confirmed that the plant-based assay could be used to screen proteins in plants in the growth chamber for temperature-sensitive activity."}, "[3]": {"system": "transgenic soybean plants", "test": "R0 soybean 2,4-D spray test of 2,4-D optimized variants", "format": "in vivo", "excerpt": "An additional five engineered proteins optimized for activity for 2,4-D were then selected for analysis in transgenic soybean. DNA constructs were produced for expressing MON-HT13 (SEQ ID NO:47), MON-HT14 (SEQ ID NO:48), MON-HT15 (SEQ ID NO:49), MON-HT17 (SEQ ID NO:51), and MON-HT18 (SEQ ID NO:52) with codon usage optimized for dicot expression. The operably linked expression elements (promoter, leader, intron, CTP, and 3′UTR) were identical in all of the constructs. Leaf samples were taken from R0 plantlets and single copy plants were identified using a PCR-based assay. When the single-copy R0 plants had approximately two to three trifoliate leaves, they were treated with either 1.5 lb ae/acre (2×) or 3.0 lb ae/acre (4×) of 2,4-D. Seven days after herbicide application, the plants were scored for herbicide injury based on the percent area of the plant showing injury, as indicated above."}, "[4]": {"test": "enzyme activity assay at 23° C. with purified enzyme", "format": "biochemical", "protocol": "The enzyme activity of MON-HT protein variants with triclopyr, fluroxypyr, MCPA, MCPB, mecoprop, as substrates was determined using the enzyme activity assay conducted at 23° C. with purified enzyme. The activity was recorded as the maximum activity as a percentage of the wild-type RdpA enzyme's activity, which was set at 100%. […] The enzymatic activity with mecoprop as a substrate was reduced for each of the MON-HT1, MON-HT13, MON-HT15, and MON-HT17 variants compared to the wild-type RdpA enzyme. An unexpected result was that enzymatic activity with MCPA as a substrate was roughly 6-fold greater for MON-HT1, and approximately 10-fold greater for MON-HT13, MON-HT15, and MON-HT17 compared to the wild-type RdpA enzyme."}, "transgenic soy plants": {"system": "transgenic soy plants", "test": "soy green house tolerance to synthetic auxins", "format": "in vivo, soybean", "details": "for Average soy % crop injury for 4 reps, 2,4-D Amine / Average soy % crop injury for 4 reps, MCPA: 2X rate 1680 g ae/ha"}, "F1 hybrid maize plants [5]": {"system": "F1 hybrid maize plants", "test": "maize green house tolerance to synthetic auxins", "format": "in vivo", "details": "'A' CTP, Events 1-3 in columns"}, "[6]": {"details": "percentage of wild-type RdpA, set at 100%"}, "[7]": {"details": "2X rate 840 g ae/ha, Events 1-3 in columns, seven days after treatment"}, "[8]": {"details": "Events 1-3 in columns, seven days after treatment"}, "[9]": {"details": "Events 1-3 in columns, seven days after treatment, listed as MON-HTI"}}, "note": "Values joined by “and” are separate entries in the source; they are usually repeats but may differ in a detail not shown here. Equal entries are not always repeated.", "data": [{"molecule": "B1", "values": [{"measurement": "injury rating averages", "setting": "F1 hybrid maize plants [1]", "value": 50, "unit": "%"}, {"measurement": "tolerance to 2× quizalofop-P application", "setting": "F1 hybrid maize plants [2]; acclimated at day/night 20° C./20° C. or 28° C./20° C.", "value": "good tolerance"}, {"measurement": "tolerance to 2× quizalofop-P application", "setting": "F1 hybrid maize plants [2]; acclimated at day/night 38° C./30° C.", "value": "significant sensitivity"}]}, {"molecule": "B2", "values": [{"measurement": "Events with <20% injury", "setting": "[3]; 2,4-D rate 2X (1.5 lb ae/acre), single copy R0 soy, seven days after application", "value": 12}, {"measurement": "tolerance to 2,4-D treatment", "setting": "[3]; 2× application rate, soy", "value": "excellent tolerance"}, {"measurement": "activity with MCPB as the substrate", "setting": "[4]", "value": "no detectable activity"}, {"measurement": "enzymatic activity with MCPA greater compared to the wild-type RdpA enzyme", "setting": "[4]", "value": "roughly 6 fold"}, {"measurement": "activity with fluroxypyr as the substrate", "setting": "[4]; not robust enough to quantify", "value": "detectable activity"}, {"measurement": "activity with triclopyr as the substrate", "setting": "[4]; not robust enough to quantify", "value": "detectable activity"}, {"measurement": "MCPA Km", "setting": "[4]; [6]", "value": 21, "unit": "%"}, {"measurement": "MCPA Vmax", "setting": "[4]; [6]", "value": 600, "unit": "%"}, {"measurement": "Mecoprop Km", "setting": "[4]; [6]", "value": 142, "unit": "%"}, {"measurement": "Average soy % crop injury for 4 reps, fluroxypyr", "setting": "transgenic soy plants; [7]", "value": "96.3% and 93.8% and 97.5%"}, {"measurement": "Average soy % crop injury for 4 reps, triclopyr", "setting": "transgenic soy plants; [7]", "value": "81.3% and 90.0%"}, {"measurement": "Average soy % crop injury for 4 reps, 2,4-D Amine", "setting": "transgenic soy plants; [8]", "value": "4.5% and 6.5% and 5.3%"}, {"measurement": "Average soy % crop injury for 4 reps, MCPA", "setting": "transgenic soy plants; [8]", "value": "90.0% and 72.5%"}, {"measurement": "Average soy % crop injury for 4 reps, 2,4-D Amine", "setting": "transgenic soy plants; [9]", "value": "less than 7%"}, {"measurement": "Average soy % crop injury for 4 reps, MCPA", "setting": "transgenic soy plants; [9]", "value": "72% and 90%"}, {"measurement": "soy crop injury, triclopyr or fluroxypyr, across all three events", "setting": "transgenic soy plants; 2× rate 840 g ae/ha", "value": "81-97%"}, {"measurement": "Average maize % crop injury for 4 reps, fluroxypyr", "setting": "F1 hybrid maize plants [5]; 4X rate 1680 g ae/ha", "value": "20.0% and 21.3%"}, {"measurement": "Average maize % crop injury for 4 reps, triclopyr", "setting": "F1 hybrid maize plants [5]; 4X rate 1680 g ae/ha", "value": "26.3% and 37.5% and 35.0%"}, {"measurement": "Average maize % crop injury for 4 reps, MCPA", "setting": "F1 hybrid maize plants [5]; 4X rate 3360 g ae/ha, listed as MON-HTl", "value": 20, "unit": "%"}]}]}
